Laboratory results reported in article PMC10011135, “Molecular identification and physiological functional analysis of NtNRT1.1B that mediated nitrate long-distance transport and improved plant growth when overexpressed in tobacco” (Frontiers in Plant Science, 2023).

Substrate: O=[N+]([O-])O
Assay: cells, lysate or membranes
Set-up: species or system Nicotiana tabacum
Conditions: whole roots of 2-day N-starved tobacco plants (wild-type K326 background subtracted); 5–500 μM nitrate; labelled compound (15N)

B1: NtNRT1.1B (Nicotiana tabacum) (protein)
chain: MALPETQQDSKALPDAWDYKGRPALRSSSGGWASGAMILGVEAVERLTTLGIAVNLVTYLTGTMHLGNATAANNVTNFLGTSFMLTLFGGFVADTFLGRYLTIGIFATVQAMGVTILTISTIIPSLRPPKCEQVGSSSCIPANSKQLMVLYIALYMTALGTGGLKSSVSGFGTDQFDDADKKEKGQMIKFFDWFFFFINVGSLGAVTVLVYIQDNLGREWGYGICACAIVIGLVVFLSGTRKYRFKKLVGSPLTQIASVIVAAWKKRHLELLSDSSLLFEIDDIFGEGNKKNKQKLPHSKEYRFLDKAAIKEDHDLESNGTNVVINKWKLATLTDVEEVKLLIRMLPTWATTIMFWTVYAQMTTFSVSQATTMDRHIGTFEIPPASLTVFFVGSILLTVIFYDRVIVPICRRFMNKPHGLTPLQRIFTGLVLSILAMIAAALTEVKRLKVAHLHGLTNDANATIPLSVFWLVPQFLLVGAGEAFTYIGQLDFFLRECPKGMKTMSTGLFLSTLALGFFFSSILVTIVHVVTGTTNPWLADNLNQGRLYDFYWLLAILSVLNLMFFLYFSRKYVYKEKRLAEMGIELEDDGPVCH
notes: full-length untagged ORF (1,785 bp, 594 residues) under CaMV 35S promoter, overexpressed in tobacco K326 (line L1); formerly named NtNRT1.2 (Liu et al., 2018)
Km: 29.05 ± 3.34 µM
